Target: the molecule itself
Assay: non-reducing versus reducing SDS-PAGE with immunoblot; proteins precipitated from conditioned media of stable SH-SY5Y lines; about 110 kDa band on non-reducing gels, 55 kDa CRLF1 band on reducing gels; blots for CRLF1 and CLCF1

B1: cytokine receptor-like factor 1 (CRLF1), full-length, untagged (natural protein, UniProt O75462 38-422, looked up)
chain: AHTAVISPQDPTLLIGSSLLATCSVHGDPPGATAEGLYWTLNGRRLPPELSRVLNASTLALALANLNGSRQRSGDNLVCHARDGSILAGSCLYVGLPPEKPVNISCWSKNMKDLTCRWTPGAHGETFLHTNYSLKYKLRWYGQDNTCEEYHTVGPHSCHIPKDLALFTPYEIWVEATNRLGSARSDVLTLDILDVVTTDPPPDVHVSRVGGLEDQLSVRWVSPPALKDFLFQAKYQIRYRVEDSVDWKVVDDVSNQTSCRLAGLKPGTVYFVQVRCNPFGIYGSKKAGIWSEWSHPTAASTPRSERPGPGGGACEPRGGEPSSGPVRRELKQFLGWLKKHAYCSNLSFRLYDQWRAWMQKSHKTRNQDEGILPSGRRGTARGPAR
notes: signal peptide in the construct; cytokine receptor-like factor 1 (CRLF1), untagged full-length open reading frame in pCDH-EF1-MCS-IRES-neo; detected in the conditioned medium as the secreted protein; The 110 kDa band is lost on reduction, so the dimer appears to be disulfide-linked; also called CRLF1-FL; FL
stoichiometry N: 2

— publication PMC3688593, “Cytokine Receptor-Like Factor 1 (CRLF1) Protects against 6-Hydroxydopamine Toxicity Independent of the gp130/JAK Signaling Pathway” (PLoS ONE, 2013)
